Data on 16 molecules can be found in paper PMC10066265, “Inhibitor-3 inhibits Protein Phosphatase 1 via a metal binding dynamic protein–protein interaction” (Nature Communications, 2023).

Values joined by “and” are separate entries in the source; they are usually repeats but may differ in a detail not shown here. Equal values may be shown once. Read-outs that look alike come from different tables or passages of the source.

Experiment [1] has as its target T1, PP1_7-330 (Homo sapiens, UniProt P62136).
T1 construct: gene PPP1CA; His6-PP1α7-330, E. coli expressed, Mn2+ loaded
On the procedure: SPR measurements were performed using a 4-channel Reichert 4SPR instrument fitted with autosampler and a degassing pump (Reichert Technologies). SPR buffers containing 20 mM Tris pH 8.0, 500 mM NaCl, 1 mM MnCl2, 0.5 mM TCEP, 0.05% Tween-20 were prepared, sterile filtered, and degassed in autoclaved glassware prior to each experiment. Running buffer was used to prime and run both the sample and syringe pump reservoirs. Gold sensorchips modified with Ni-NTA-functionalized polycarboxylate (NiH[…]; XanTec Bioanalytics GmbH) were installed and equilibrated under flow conditions (100 μL/min) for ≥60 min at 25 °C. Surface contaminants were cleared from the chip surface by a pair of 120 μL injections of 2 M NaCl and 10 mM NaOH during the equilibration step. […] The sensorchip was allowed to equilibrate for 5 min at 50 μL/min prior to initiation of experiments. The concentrations of I3_1-126 and its variants ([…] and […]3_79-91) were measured using AccuOrange^TM Protein Quantification Kit (Biotium). For measurements, I3_1-126 and its variants were diluted into running buffer from concentrated stocks, and a series of injections at different I3 concentrations were applied. […] For all experiments, buffer blank injections were included at an interval of two sample injections to achieve double referencing. Technical replicates were obtained by utilizing three channels per chip coupled with stripping of the sensorchip with 350 mM EDTA pH 8.0, reconditioning the surface with 10 mM NaOH to remove non-specifically bound PP1 aggregates, charging the surface with 10 mM NiSO4, and reloading fresh PP1 onto the surface. All replicates were generated with freshly diluted PP1 and I3. Kinetic parameters were determined by curve-fitting using TraceDrawer software (Ridgeview Instruments AB) fit with a one-to-one one state or one-to-one two state model. Statistical analyses of SPR data were performed using Microsoft Excel.

The target in experiment [2] is T1, PP1_7-330. Conditions: SD, n = 3.
The target in experiment [3] is T2, His6-PP1α_(7-330) (UniProt P62136 7-330). The experiment is described as follows: cell-based or functional assay.
T2 sequence (P62136 7-330): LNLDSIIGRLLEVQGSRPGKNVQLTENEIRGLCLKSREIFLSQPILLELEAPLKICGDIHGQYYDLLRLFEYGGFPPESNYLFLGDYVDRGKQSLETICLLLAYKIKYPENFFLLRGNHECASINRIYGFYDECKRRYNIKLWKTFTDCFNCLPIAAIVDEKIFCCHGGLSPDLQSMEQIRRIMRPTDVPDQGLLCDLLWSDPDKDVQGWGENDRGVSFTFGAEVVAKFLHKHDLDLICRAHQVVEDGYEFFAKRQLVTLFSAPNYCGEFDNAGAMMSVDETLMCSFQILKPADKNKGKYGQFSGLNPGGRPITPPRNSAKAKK
The target in experiment [4] is T2, His6-PP1α_(7-330). Nature of the experiment: SPR; His6-PP1 captured on a Ni-NTA sensorchip (NiHC200M), I3 variants injected; 25 °C; 20 mM Tris pH 8.0, 500 mM NaCl, 1 mM MnCl2, 0.5 mM TCEP, 0.05% Tween-20; one-to-one one state or one-to-one two state model. Particulars: both partners purified. A general note: In SPR one partner is held on a chip, and binding of the other changes the refractive index at the surface.

Experiment [5] deals with T3, PP1α_(7-330) (UniProt P62136 7-330).
T3 construct: Protein Phosphatase 1 alpha (PP1α), residues 7-330; His6-PP1 was captured on the Ni-NTA sensor chip as the SPR ligand; Mn2+ in all buffers; also called Protein Phosphatase 1; His6-PP1; source: E. coli, purified (Ni-NTA, SEC)
T3 sequence (P62136 7-330): as above
The experiment is described as follows: SPR; His6-PP1 captured on Ni-NTA chip (NiHC200M), I3 variants injected; 25 °C; 20 mM Tris pH 8.0, 500 mM NaCl, 1 mM MnCl2, 0.5 mM TCEP, 0.05% Tween-20; one-to-one one state or one-to-one two state model (TraceDrawer). Conditions: both partners purified.

T1 sequence (P62136 7-330): as above

The Kd is the concentration at which binding is half-saturated. Higher therefore signals lower affinity. Molecule “I3 1-126 C60S/C61S/C62S [SSS: I3_1-126 C60S/C61S/C62S]” yielded a Kd in experiment [1] (n = 3) of 300 ± 23 nM.
In the case of “I3 1-126 T29A/I30A/K31A [SILKdead: I3_1-126 T29A/I30A/K31A]”, binding in experiment [1] (n = 3) was characterised by a dissociation constant (Kd) of 13.1 ± 2.8 nM.
“I3 1-126 with KVEW 40-43 mutated to KAEA [RVxFdead: I3_1-126 ^40KAEA^43]”: the affinity in experiment [1] (n = 4), expressed as Kd, was 3460 ± 531 nM.
A word on the IC50: it is the point on the concentration scale where inhibition reaches its midpoint. For “human Inhibitor-3 (PPP1R11) full length, residues 1-126 [I3_1-126]”, the Kd in experiment [1] (n = 3) is 15.7 ± 2 nM. In addition, inhibition in experiment [2] was half-maximal at 71 ± 6 nM (IC50).

B1: Inhibitor-3 I3_(1-126) (full-length) (natural protein, human, UniProt O60927 1-126, looked up)
chain: MAEAGAGLSETVTETTVTVTTEPENRSLTIKLRKRKPEKKVEWTSDTVDNEHMGRRSSKCCCIYEKPRAFGESSTESDEEEEEGCGHTHCVRGHRKGRRRATLGPTPTTPPQPPDPSQPPPGPMQH
notes: PPP1R11), human, 126 aa, residues 1-126; Uniformly 15N-labelled in the NMR experiment, unlabelled in SPR; also called PPP1R11; YPI1; source: E. coli BL21 (DE3), purified (Ni-NTA, TEV, heat 95 °C, SEC); not shown: His6, N-terminal, cleaved; MBP, N-terminal, cleaved
As for B1, in experiment [3], the “IC50 of PP1 inhibition (dephosphorylation of the H3pT3 peptide, released Pi)” value is 71 nM. This molecule returned a Kd in experiment [4] of 15.7 ± 2 nM.

B2: I3_(1-126) (FL, full-length) (natural protein, human, UniProt O60927 1-126, looked up)
chain: MAEAGAGLSETVTETTVTVTTEPENRSLTIKLRKRKPEKKVEWTSDTVDNEHMGRRSSKCCCIYEKPRAFGESSTESDEEEEEGCGHTHCVRGHRKGRRRATLGPTPTTPPQPPDPSQPPPGPMQH
notes: PPP1R11), human, 126 aa, residues 1-126; also called PPP1R11; source: E. coli BL21 (DE3), purified (Ni-NTA, TEV cleavage, heat, SEC); not shown: His6, N-terminal, cleaved; MBP, N-terminal, cleaved
Turning to B2, in experiment [5], the Kd is 17.7 nM and 13.7 nM and 15.6 nM.

B3: SILK_(dead): I3_(1-126) T29A/I30A/K31A (natural protein, human, UniProt O60927 1-126, looked up)
chain: MAEAGAGLSETVTETTVTVTTEPENRSLAAALRKRKPEKKVEWTSDTVDNEHMGRRSSKCCCIYEKPRAFGESSTESDEEEEEGCGHTHCVRGHRKGRRRATLGPTPTTPPQPPDPSQPPPGPMQH
notes: PPP1R11), human, residues 1-126, T29A/I30A/K31A; also called I3_1-126_SLAAA; I3_(1-126) 29AAA31; source: E. coli BL21 (DE3), purified (Ni-NTA, TEV cleavage, heat, SEC); not shown: His6, N-terminal, cleaved; MBP, N-terminal, cleaved
With B3, the Kd in experiment [5] is 16.3 nM and 11.9 nM and 11.2 nM.

B4: SSS: I3_(1-126) C60S/C61S/C62S (natural protein, human, UniProt O60927 1-126, looked up)
chain: MAEAGAGLSETVTETTVTVTTEPENRSLTIKLRKRKPEKKVEWTSDTVDNEHMGRRSSKSSSIYEKPRAFGESSTESDEEEEEGCGHTHCVRGHRKGRRRATLGPTPTTPPQPPDPSQPPPGPMQH
notes: PPP1R11), human, residues 1-126, C60S/C61S/C62S; also called I3_1-126_SSS; I3_(1-126)SSS; source: E. coli BL21 (DE3), purified (Ni-NTA, TEV cleavage, heat, SEC); not shown: His6, N-terminal, cleaved; MBP, N-terminal, cleaved
In general, koff refers to the rate constant with which the complex falls apart. The low end stands for a long-lived complex, the high end for a short-lived complex. One may read the kon as a measure of how fast the partners come together. The low end stands for slow association, the high end for fast association. For B4, in experiment [5], the Kd was 295 nM and 330 nM and 287 nM and 304 nM; the koff is 0.0957 s⁻¹ and 0.103 s⁻¹ and 0.093 s⁻¹ and 0.0972 s⁻¹; the kon is 325000 M⁻¹ s⁻¹ and 313000 M⁻¹ s⁻¹ and 321000 M⁻¹ s⁻¹.

B5: SILK_(dead): I3_(1-126) T29A/I30A/K31A (natural protein, human, UniProt O60927 1-126, looked up)
chain: MAEAGAGLSETVTETTVTVTTEPENRSLAAALRKRKPEKKVEWTSDTVDNEHMGRRSSKCCCIYEKPRAFGESSTESDEEEEEGCGHTHCVRGHRKGRRRATLGPTPTTPPQPPDPSQPPPGPMQH
notes: PPP1R11), human, residues 1-126; also called I3_(1-126) 29AAA31; source: E. coli BL21 (DE3), purified (Ni-NTA, TEV, heat 95 °C, SEC); not shown: His6, N-terminal, cleaved; MBP, N-terminal, cleaved
Molecule B5 yielded a Kd in experiment [4] of 13.1 ± 2.8 nM.

B6: SSS: I3_(1-126) C60S/C61S/C62S (natural protein, human, UniProt O60927 1-126, looked up)
chain: MAEAGAGLSETVTETTVTVTTEPENRSLTIKLRKRKPEKKVEWTSDTVDNEHMGRRSSKSSSIYEKPRAFGESSTESDEEEEEGCGHTHCVRGHRKGRRRATLGPTPTTPPQPPDPSQPPPGPMQH
notes: PPP1R11), human, residues 1-126; also called I3_(1-126)SSS; source: E. coli BL21 (DE3), purified (Ni-NTA, TEV, heat 95 °C, SEC); not shown: His6, N-terminal, cleaved; MBP, N-terminal, cleaved
The molecule B6 had a dissociation constant (Kd) in experiment [4] of 300 ± 23 nM. Compared with the last molecule, the Kd is about 23-fold higher.

B7: RVxF_(dead): I3_(1-126) 40KAEA43 (natural protein, human, UniProt O60927 1-126, looked up)
chain: MAEAGAGLSETVTETTVTVTTEPENRSLTIKLRKRKPEKKAEATSDTVDNEHMGRRSSKCCCIYEKPRAFGESSTESDEEEEEGCGHTHCVRGHRKGRRRATLGPTPTTPPQPPDPSQPPPGPMQH
notes: PPP1R11), human, residues 1-126, 40KVEW43 mutated to 40KAEA43; also called I3_1-126_KAEA; I3_(RAXA); source: E. coli BL21 (DE3), purified (Ni-NTA, TEV cleavage, heat, SEC); not shown: His6, N-terminal, cleaved; MBP, N-terminal, cleaved
In the case of B7, the Kd in experiment [5] was 3390 nM and 3260 nM and 2970 nM and 4210 nM.

B8: RVxF_(dead): I3_(1-126) 40KAEA43 (natural protein, human, UniProt O60927 1-126, looked up)
chain: MAEAGAGLSETVTETTVTVTTEPENRSLTIKLRKRKPEKKAEATSDTVDNEHMGRRSSKCCCIYEKPRAFGESSTESDEEEEEGCGHTHCVRGHRKGRRRATLGPTPTTPPQPPDPSQPPPGPMQH
notes: PPP1R11), human, residues 1-126; Uniformly 15N-labelled in the NMR experiment, unlabelled in SPR; also called I3_(RAXA) variant; I3 RVxF_(dead); source: E. coli BL21 (DE3), purified (Ni-NTA, TEV, heat 95 °C, SEC); not shown: His6, N-terminal, cleaved; MBP, N-terminal, cleaved
As to B8, the affinity in experiment [4], expressed as Kd, was 3460 ± 531 nM.

B9: SILK_(deletion): I3_(38-68) (Δ27-37) (domain or fragment, human, UniProt O60927 38-68, looked up)
chain: EKKVEWTSDTVDNEHMGRRSSKCCCIYEKPR
notes: PPP1R11), human, residues 38-68; source: E. coli BL21 (DE3), purified (Ni-NTA, TEV, heat 95 °C, SEC); not shown: His6, N-terminal, cleaved; MBP, N-terminal, cleaved
For the molecule B9, in experiment [4], binding was characterised by a dissociation constant (Kd) of 15.2 ± 2.5 nM.

B10: SILK_(deletion): I3_(38-68) (Δ27-37) (domain or fragment, human, UniProt O60927 38-68, looked up)
chain: EKKVEWTSDTVDNEHMGRRSSKCCCIYEKPR
notes: PPP1R11), human, residues 38-68; also called SILKdead: I338-68 (Δ27-37); source: E. coli BL21 (DE3), purified (Ni-NTA, TEV cleavage, heat, SEC); not shown: His6, N-terminal, cleaved; MBP, N-terminal, cleaved
As to B10, the Kd in experiment [5] is 14.8 nM and 17.9 nM and 13 nM.

B11: SILK_(dead): I3_(27-68) T29A/I30A/K31A (domain or fragment, human, UniProt O60927 27-68, looked up)
chain: SLAAALRKRKPEKKVEWTSDTVDNEHMGRRSSKCCCIYEKPR
notes: PPP1R11), human, residues 27-68; also called I3_(27-68) 29AAA31; source: E. coli BL21 (DE3), purified (Ni-NTA, TEV, heat 95 °C, SEC); not shown: His6, N-terminal, cleaved; MBP, N-terminal, cleaved
Take B11: the affinity in experiment [4], expressed as Kd, was 16.8 ± 2.8 nM.

B12: SILK_(dead): I3_(27-68) T29A/I30A/K31A (domain or fragment, human, UniProt O60927 27-68, looked up)
chain: SLAAALRKRKPEKKVEWTSDTVDNEHMGRRSSKCCCIYEKPR
notes: PPP1R11), human, residues 27-68, T29A/I30A/K31A; also called I3_27-68_SLAAA; I3_(27-68) 29AAA31; source: E. coli BL21 (DE3), purified (Ni-NTA, TEV cleavage, heat, SEC); not shown: His6, N-terminal, cleaved; MBP, N-terminal, cleaved
With B12, the equilibrium dissociation constant (Kd) in experiment [5] is 13.5 nM and 18.2 nM and 18.6 nM.
